# PMC12784962, “https://orcid.org/0000-0002-3633-7823 Baral Joydeep Department of Bioscience and Biotechnology, Indian Institute of Technology Kharagpur, West Midnapore 721302, West Bengal, India”
# B1: mycobacterial Ku (mKu), Mycobacterium tuberculosis, wild type (natural protein)
# chain: MRAIWTGSIAFGLVNVPVKVYSATADHDIRFHQVHAKDNGRIRYKRVCEACGEVVDYRDLARAYESGDGQMVAITDDDIASLPEERSREIEVLEFVPAADVDPMMFDRSYFLEPDSKSSKSYVLLAKTLAETDRMAIVHFTLRNKTRLAALRVKDFGKREVMMVHTLLWPDEIRDPDFPVLDQKVEIKPAELKMAGQVVDSMADDFNPDRYHDTYQEQLQELIDTKLEGGQAFTAEDQPRLLDEPEDVSDLLAKLEASVKARSKANSNVPTPP
# notes: Ku protein of Mycobacterium tuberculosis, gene Rv0937c, 31 kDa; the C-terminal 46 residues are not seen in the maps; also called mKu WT; mKu-WT
# Target: the molecule itself
# Test: cryo-EM structure; monomer to monomer within the homodimer; 5 µM mKu dimer with equimolar 40-bp linear dsDNA or short hairpin DNA, 30 min at 4°C
protein,measurement,value
B1,binding result,binds
